Test system: MS2 coat protein
Experiment: apparent KD of MS2 coat protein; designed switch direction (-1 OFF switch, 1 ON switch): 1; higher = weaker reporter binding
Outline: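 Each step of the titration lasted 0.8–1.5 h at the lowest concentration and 10–20 min at the highest. The protein, SNAP-549-labelled MS2 coat protein, went from 0.7 or 1.5 nM doubling to 3 µM over RNA switches transcribed on Illumina chips by stalled E. coli RNA polymerase. Normalised cluster fluorescence was curve-fitted, and the per-design median over clusters is given as apparent KD.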

[1] = input ligand: microRNA oligo, concentration not stated
[2] = Eterna round: R95, input ligand: FMN 200 uM
[3] = Eterna round: R95, input ligand: microRNA oligo, concentration not stated
[4] = Eterna round: R95, input ligand: none

| Sequence | apparent KD of MS2 coat protein (input ligand: FMN 200 uM) [nM] | apparent KD of MS2 coat protein [1] [nM] | apparent KD of MS2 coat protein (input ligand: none) [nM] | apparent KD of MS2 coat protein [2] [nM] | apparent KD of MS2 coat protein [3] [nM] | apparent KD of MS2 coat protein [4] [nM] |
| --- | --- | --- | --- | --- | --- | --- |
| AUAGUUUCCGAAGGAUAUGAUGAGGAUCACCCAUCAGAAGGUUGGCUAUUGGGCUGACAUGAGGAUCACCCAUGUUCUGGAGUU (Eterna round: R96, puzzle: Same State NG 1) | 39.8 | 39.5 | 64.5 |  |  |  |
| AUCAAAACAAGUUGCAGUGUUCGUCUUUCACAUGAGGAUCACCCAUGUAAUAGCCCAGUGGAAGCGCUCAGGCCACC [Usbi] (puzzle: Sensor for hsa-mir-208a) |  |  |  | 225 | 57.7 | 210 |
| AUCCUACAUGAGGAUCACCCAUGUGACGCCUCGAUAGGAUAUGCGUGUGCCUUGGCGCAUGCAGAAGGAUUGGAGC [JL Aveso mod 5] (puzzle: Same State 1) |  |  |  | 88.4 | 72.6 | 78.5 |
| AUGAAGAAUUAAGGAUAUUGAAUACAUAUGUUUAACAUGAGGAUCACCCAUGUGGGUUGCGGUAUCGAGAAGGUAAAUUAAUAG [Mat - same State NG 2 - JL mod - D90] (Eterna round: R96, puzzle: Same State NG 2) | 142 | 156 | 143 |  |  |  |
| AUGAAUUUGCGAGGAUAUCGUUUGUUGAAGUUACGAGAAGGCGCUCACUUUACAUGAGGAUCACCCAUGUUUAUGUUUUAUGAU [JR_SSNG1_Sub075] (Eterna round: R96, puzzle: Same State NG 1) | 22 | 21.6 | 31.1 |  |  |  |
| AUGAUUUAUGCAGGAUAUGAUUAACAUGAGGAUCACCCAUGUGGUGUUGUGAGUAAGGAGAGUGAUCAGAAGGGCAUUUUUUUU [JMF's solution 71] (Eterna round: R96, puzzle: Same State NG 2) | 1170 | 402 | 506 |  |  |  |
| AUGCCAAAUCGAGGAUAUGGAGCCUUAUUGGCUCCAGAAGGUGAGACAUGAGGAUCACCCAUGUGGCAGUGGUCUAAUGACCAC [Fiskers NG1ss - 32] (Eterna round: R96, puzzle: Same State NG 1) | 174 | 270 | 581 |  |  |  |
| AUUAAACAUGAGGAUCACCCAUGUCAACAAAGUCGAGGAUAUGGGCAAAUAAAAUAAGAACCAGAAGGCGAAUUAU [salish99_ss1_r3_079] (puzzle: Same State 1) |  |  |  | 32.6 | 337 | 312 |
| AUUAAACAUGAGGAUCACCCAUGUCAACAAAGUCGAGGAUAUGGGCAAAUAUUAUAAUAACCAGAAGGCGAAUAAU [salish99_ss1_r3_082] (puzzle: Same State 1) |  |  |  | 27.4 | 212 | 149 |
| AUUAAUAAUCGAGGAUAUCACGUCGAUUAGACGUGAGAAGGCGAUCAUAACAUGAGGAUCACCCAUGUAUUACAUGAAGUUAAU [SSNG1/4-B2] (Eterna round: R96, puzzle: Same State NG 1) | 25.3 | 23.7 | 28.2 |  |  |  |
| AUUAUUAAUGCAGGAUAUGAUUAACAUGAGGAUCACCCAUGUGGUGUUGUGAGUAAGGAGAGUGAUCAGAAGGGCAUUUUUGUU [JMF's solution 14] (Eterna round: R96, puzzle: Same State NG 2) | 811 | 330 | 629 |  |  |  |
| AUUAUUAAUGCAGGAUAUGAUUAACAUGAGGAUCACCCAUGUGGUGUUGUGAGUAAGGAGAGUGAUCAGAAGGGCAUUUUUUUG [JMF's solution 19] (Eterna round: R96, puzzle: Same State NG 2) | 420 | 423 | 452 |  |  |  |
| AUUCUUAAUGCAGGAUAUGAUUAACAUGAGGAUCACCCAUGUGGUGUUGUGAGUAAGGAGAGUGAUCAGAAGGGCAUUUUUUUU [JMF's solution 32] (Eterna round: R96, puzzle: Same State NG 2) | 316 | 271 | 210 |  |  |  |
| AUUGCUUUCGCAGGAUAUGAUGCGAAAAUUGCGUCAGAAGGGUGGAGUAUCUCAUUGCAAGAGGACAUGAGGAUCACCCAUGUC [SameState NG1 #87] (Eterna round: R96, puzzle: Same State NG 1) | 40.5 | 140 | 216 |  |  |  |
| AUUUUUGAUGCAGGAUAUGAUUAACAUGAGGAUCACCCAUGUGGUGUUGUGAGUAAGGAGAGUGAUCAGAAGGGCAUUUUUUUU [JMF's solution 93] (Eterna round: R96, puzzle: Same State NG 2) | 810 | 269 | 365 |  |  |  |
| CAAGCUUGGGUCGUCCCGCUCGUCUUCAAACAUGAGGAUCACCCAUGUAUACUCUUCACAUCAAUUCUAUCUCUUAA [Ralasoerin] (puzzle: Sensor for hsa-mir-208a) |  |  |  | 255 | 22.8 | 289 |
| CAAGUACAUGAGGAUCACCCAUGUGGAAGAGAUGCAGGAUAUGUGGGAGAAGGGAGUGUAACAGAAGGGCAAGGAG [JR_SS!_Sub019] (puzzle: Same State 1) |  |  |  | 113 | 71.8 | 109 |
| CAGCGCUGUCGAGAGGAUAUGCUGUGAUGGACAUGAGGAUCACCCAUGUUAGCGAUAGCAUUACUGUAGAAGGCUCUACAGCUGC [Soteed - 15] (puzzle: Same State 2) |  |  |  |  | 10.9 |  |
| CAGCGCUGUCGAGAGGAUAUGUGGUGAUGGACAUGAGGAUCACCCAUGUUAGCGACAGUAUCACGGCAGAAGGCUCUACCGCUGC [Soteed Omei mod 31] (puzzle: Same State 2) |  |  |  | 56.1 | 38.1 | 44 |
| CAGUAUCGCGGAGGAUAUGGGCUGAGACCGGAGCAACUCUGGUCAACAUGAGGAUCACCCAUGUCCCAGAAGGCCGCGAUGCUG [Enquoninso] (Eterna round: R96, puzzle: Same State NG 2) | 18.4 | 62.2 | 96.1 |  |  |  |
| CAUCCCUCCACAGGAUAUCGACCAAUAAAACGGCGAGAAGGGUGGCCACAUGAGGAUCACCCAUGUGGAAUUGGAUGAACUACC [Atusmaceor] (Eterna round: R96, puzzle: Same State NG 1) | 141 | 120 | 77 |  |  |  |
| CCAACAUACAAUUUAAGAUCACAUGAGGAUCACCCAUGUAUGCAGGAUAUCAGCUCGUUUAGAGCUGAGAAGGGCAAUUUAAUU [SSNG3/1-A3] (Eterna round: R96, puzzle: Same State NG 3) | 99 | 158 | 202 |  |  |  |
| CCAUAACUGUGAGGAUAUUGUUGCGUUUAGUGACGAGAAGGCAUUCAUGUGAUAUAUACAUACAUGAGGAUCACCCAUGUUGUA [NG 1 30P] (Eterna round: R96, puzzle: Same State NG 1) |  | 21.4 |  |  |  |  |
| CCAUAGUACAAUUUAGAUCUACAUGAGGAUCACCCAUGUACUGAGGAUAUCAGCUCGAAUAGAGCUGAGAAGGCAGAAUUAAUU [SSNG3/5-A1] (Eterna round: R96, puzzle: Same State NG 3) |  | 103 |  |  |  |  |
| CCCGCGUUUCGCGCCUACAUGAGGAUCACCCAUGUUUGUAGGCAGGAUAUCGUCCGCUCUGCGGGCGAGAAGGGCUGUCGUGGU [salish99_SSNG3_R04_030] (Eterna round: R96, puzzle: Same State NG 3) | 65.7 | 53.5 | 70.1 |  |  |  |
| CCCUGAGGCAGCCUACAGGGACAUGAGGAUCACCCAUGUACACAGGAUAUCGAGGGCUCCGCCCUCGAGAAGGGUGAUCAGACU [Redied] (Eterna round: R96, puzzle: Same State NG 3) | 321 | 161 | 97.4 |  |  |  |
| CCGAAAGGAGUAGGAUAUGUAGGAUAUGCCUACAUGAGGAUCACCCAUGUUCGCAUGGCAGAAGGACAGAAGGACACGGAAACG [pwkr ssNG2 2FMN + 1F5.12] (Eterna round: R96, puzzle: Same State NG 2) | 101 | 113 | 293 |  |  |  |
| CCGAUCUACCGAAAGGUAGAUGGGCUUGUACAUGAGGAUCACCCAUGUCAGUACAAGCUUUUUGCUCCUCUUAUCCU [salish99-hsa-208a-40] (Eterna round: R96, puzzle: Sensor for hsa-mir-208a) | 41.8 | 14 | 42.7 |  |  |  |
